Measured values reported in PMC8868134 (Antibiotics, 2022).

Target: T1, MexB (RND inner membrane transporter) (Pseudomonas aeruginosa, UniProt P52002 1-1046)
T1 sequence: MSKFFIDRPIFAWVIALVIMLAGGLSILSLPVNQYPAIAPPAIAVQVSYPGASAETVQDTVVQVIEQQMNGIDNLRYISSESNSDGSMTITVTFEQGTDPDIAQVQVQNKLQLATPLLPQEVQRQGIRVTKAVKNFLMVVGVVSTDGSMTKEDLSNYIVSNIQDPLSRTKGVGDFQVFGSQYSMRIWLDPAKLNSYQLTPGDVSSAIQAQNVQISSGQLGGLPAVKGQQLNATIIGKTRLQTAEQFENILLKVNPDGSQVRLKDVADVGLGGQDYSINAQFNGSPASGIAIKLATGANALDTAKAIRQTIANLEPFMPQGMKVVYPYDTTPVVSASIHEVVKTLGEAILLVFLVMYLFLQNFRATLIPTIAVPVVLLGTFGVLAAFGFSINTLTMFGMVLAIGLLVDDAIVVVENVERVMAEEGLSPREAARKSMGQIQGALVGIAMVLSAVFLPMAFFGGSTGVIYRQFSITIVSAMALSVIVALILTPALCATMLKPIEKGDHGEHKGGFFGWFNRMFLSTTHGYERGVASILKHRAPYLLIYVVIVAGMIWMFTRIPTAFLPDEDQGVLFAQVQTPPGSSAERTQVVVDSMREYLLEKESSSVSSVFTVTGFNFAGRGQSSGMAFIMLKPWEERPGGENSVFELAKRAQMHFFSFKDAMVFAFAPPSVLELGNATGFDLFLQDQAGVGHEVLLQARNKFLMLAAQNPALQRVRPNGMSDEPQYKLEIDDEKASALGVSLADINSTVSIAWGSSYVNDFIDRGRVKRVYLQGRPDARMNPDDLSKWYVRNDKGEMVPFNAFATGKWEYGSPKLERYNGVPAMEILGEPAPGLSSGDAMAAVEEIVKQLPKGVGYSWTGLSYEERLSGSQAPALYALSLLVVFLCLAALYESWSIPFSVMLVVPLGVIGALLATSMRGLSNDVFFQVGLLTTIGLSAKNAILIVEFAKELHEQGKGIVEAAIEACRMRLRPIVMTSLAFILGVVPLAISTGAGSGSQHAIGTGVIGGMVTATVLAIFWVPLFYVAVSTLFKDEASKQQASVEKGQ
Assay: BLI

B1: MexA wild type (periplasmic adaptor protein of MexA-MexB-OprM) (natural protein)
chain: CGKSEAPPPAQTPEVGIVTLEAQTVTLNTELPGRTNAFRIAEVRPQVNGIILKRLFKEGSDVKAGQQLYQIDPATYEADYQSAQANLASTQEQAQRYKLLVADQAVSKQQYADANAAYLQSKAAVEQARINLRYTKVLSPISGRIGRSAVTEGALVTNGQANAMATVQQLDPIYVDVTQPSTALLRLRRELASGQLERAGDNAAKVSLKLEDGSQYPLEGRLEFSEVSVDEGTGSVTIRAVFPNPNNELLPGMFVHAQLQEGVKQKAILAPQQGVTRDLKGQATALVVNAQNKVELRVIKADRVIGDKWLVTEGLNAGDKIITEGLQFVQPGVEVKTVPAKNVASAQKADAAPAKTDSKG
  Kd: 23 µM
  koff: 0.0055 s⁻¹
